Results taken from ChEMBL document CHEMBL1156468, “Crystal structures of Saccharomyces cerevisiae N-myristoyltransferase with bound myristoyl-CoA and inhibitors reveal the functional roles of the N-terminal region” (J Biol Chem, 2007).

Tests used:
[1] = target: T1, Glycylpeptide N-tetradecanoyltransferase (Saccharomyces cerevisiae S288c, UniProt P14743); experiment: Inhibition of Saccharomyces cerevisiae NMT
T1 sequence (P14743 whole entry): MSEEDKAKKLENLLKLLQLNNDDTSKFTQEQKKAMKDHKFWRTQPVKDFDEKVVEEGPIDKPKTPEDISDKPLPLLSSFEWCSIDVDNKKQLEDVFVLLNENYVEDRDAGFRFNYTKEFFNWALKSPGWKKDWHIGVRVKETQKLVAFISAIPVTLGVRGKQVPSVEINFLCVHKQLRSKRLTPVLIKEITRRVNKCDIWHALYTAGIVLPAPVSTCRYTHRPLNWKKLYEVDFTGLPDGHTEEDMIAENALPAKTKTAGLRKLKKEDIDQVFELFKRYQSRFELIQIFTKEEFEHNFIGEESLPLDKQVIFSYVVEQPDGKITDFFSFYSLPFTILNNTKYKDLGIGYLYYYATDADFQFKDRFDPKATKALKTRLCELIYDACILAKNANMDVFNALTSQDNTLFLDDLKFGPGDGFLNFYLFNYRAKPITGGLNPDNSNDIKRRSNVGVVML

[2] = substrate: CC(C)C[C@H](NC(=O)CN)C(=O)N[C@@H](Cc1ccccc1)C(=O)N[C@@H](C)C(=O)N[C@@H](CO)C(=O)N[C@@H](CCCCN)C(=O)N[C@@H](CC(C)C)C(=O)N[C@@H](Cc1ccccc1)C(=O)O; experiment: Ratio of kcat to Km for Saccharomyces cerevisiae wild type NMT
[3] = substrate: CC(C)C[C@H](NC(=O)CN)C(=O)N[C@@H](Cc1ccccc1)C(=O)N[C@@H](C)C(=O)N[C@@H](CO)C(=O)N[C@@H](CCCCN)C(=O)N[C@@H](CC(C)C)C(=O)N[C@@H](Cc1ccccc1)C(=O)O; experiment: Activity of Saccharomyces cerevisiae wild type NMT assessed as production of coenzyme A after 1 hr
[4] = substrate: CC(C)C[C@H](NC(=O)CN)C(=O)N[C@@H](Cc1ccccc1)C(=O)N[C@@H](C)C(=O)N[C@@H](CO)C(=O)N[C@@H](CCCCN)C(=O)N[C@@H](CC(C)C)C(=O)N[C@@H](Cc1ccccc1)C(=O)O; experiment: Ratio of kcat to Km for Saccharomyces cerevisiae NMT D23K mutant
[5] = substrate: CC(C)C[C@H](NC(=O)CN)C(=O)N[C@@H](Cc1ccccc1)C(=O)N[C@@H](C)C(=O)N[C@@H](CO)C(=O)N[C@@H](CCCCN)C(=O)N[C@@H](CC(C)C)C(=O)N[C@@H](Cc1ccccc1)C(=O)O; experiment: Activity of Saccharomyces cerevisiae NMT D23K mutant assessed as production of coenzyme A after 1 hr
[6] = substrate: CC(C)C[C@H](NC(=O)CN)C(=O)N[C@@H](Cc1ccccc1)C(=O)N[C@@H](C)C(=O)N[C@@H](CO)C(=O)N[C@@H](CCCCN)C(=O)N[C@@H](CC(C)C)C(=O)N[C@@H](Cc1ccccc1)C(=O)O; experiment: Ratio of kcat to Km for Saccharomyces cerevisiae NMT D23A mutant
[7] = substrate: CC(C)C[C@H](NC(=O)CN)C(=O)N[C@@H](Cc1ccccc1)C(=O)N[C@@H](C)C(=O)N[C@@H](CO)C(=O)N[C@@H](CCCCN)C(=O)N[C@@H](CC(C)C)C(=O)N[C@@H](Cc1ccccc1)C(=O)O; experiment: Activity of Saccharomyces cerevisiae NMT D23A mutant assessed as production of coenzyme A after 1 hr

Q: With `CCCCCCCCCCCCCC(=O)CSCCNC(=O)CCNC(=O)C(O)C(C)(C)COP(=O)(O)OP(=O)(O)OC[C@H]1O[C@@H](n2cnc3c(N)ncnc32)[C@H](O)[C@@H]1OP(=O)(O)O` (stereo partly specified) as the molecule, how does the IC50 [1] read?
A: The IC50 was 50 nM.

Q: For `Cc1nccn1CCCCc1ccc(CC(=O)N[C@@H](CO)C(=O)N[C@@H](CCCCN)C(=O)NCCC2CCCCC2)cc1` [SC-58272], which IC50 [1] is on record?
A: The IC50 was 24 nM.

B1: Glycylpeptide N-tetradecanoyltransferase (Saccharomyces cerevisiae S288c), P14743 (protein)
chain: MSEEDKAKKLENLLKLLQLNNDDTSKFTQEQKKAMKDHKFWRTQPVKDFDEKVVEEGPIDKPKTPEDISDKPLPLLSSFEWCSIDVDNKKQLEDVFVLLNENYVEDRDAGFRFNYTKEFFNWALKSPGWKKDWHIGVRVKETQKLVAFISAIPVTLGVRGKQVPSVEINFLCVHKQLRSKRLTPVLIKEITRRVNKCDIWHALYTAGIVLPAPVSTCRYTHRPLNWKKLYEVDFTGLPDGHTEEDMIAENALPAKTKTAGLRKLKKEDIDQVFELFKRYQSRFELIQIFTKEEFEHNFIGEESLPLDKQVIFSYVVEQPDGKITDFFSFYSLPFTILNNTKYKDLGIGYLYYYATDADFQFKDRFDPKATKALKTRLCELIYDACILAKNANMDVFNALTSQDNTLFLDDLKFGPGDGFLNFYLFNYRAKPITGGLNPDNSNDIKRRSNVGVVML
Q: Which results are given for B1?
A: kcat/Km [2]: 2.24 ×10⁵ /M/s; Km [3]: 13.7 µM; kcat [3]: 3.06 s⁻¹

B2: Glycylpeptide N-tetradecanoyltransferase (Saccharomyces cerevisiae S288c), P14743 D23K (protein)
chain: MSEEDKAKKLENLLKLLQLNNDKTSKFTQEQKKAMKDHKFWRTQPVKDFDEKVVEEGPIDKPKTPEDISDKPLPLLSSFEWCSIDVDNKKQLEDVFVLLNENYVEDRDAGFRFNYTKEFFNWALKSPGWKKDWHIGVRVKETQKLVAFISAIPVTLGVRGKQVPSVEINFLCVHKQLRSKRLTPVLIKEITRRVNKCDIWHALYTAGIVLPAPVSTCRYTHRPLNWKKLYEVDFTGLPDGHTEEDMIAENALPAKTKTAGLRKLKKEDIDQVFELFKRYQSRFELIQIFTKEEFEHNFIGEESLPLDKQVIFSYVVEQPDGKITDFFSFYSLPFTILNNTKYKDLGIGYLYYYATDADFQFKDRFDPKATKALKTRLCELIYDACILAKNANMDVFNALTSQDNTLFLDDLKFGPGDGFLNFYLFNYRAKPITGGLNPDNSNDIKRRSNVGVVML
Q: Which results are given for B2?
A: kcat/Km [4]: 7.26 ×10⁴ /M/s; Km [5]: 50.2 µM; kcat [5]: 3.64 s⁻¹

B3: Glycylpeptide N-tetradecanoyltransferase (Saccharomyces cerevisiae S288c), P14743 D23A (protein)
chain: MSEEDKAKKLENLLKLLQLNNDATSKFTQEQKKAMKDHKFWRTQPVKDFDEKVVEEGPIDKPKTPEDISDKPLPLLSSFEWCSIDVDNKKQLEDVFVLLNENYVEDRDAGFRFNYTKEFFNWALKSPGWKKDWHIGVRVKETQKLVAFISAIPVTLGVRGKQVPSVEINFLCVHKQLRSKRLTPVLIKEITRRVNKCDIWHALYTAGIVLPAPVSTCRYTHRPLNWKKLYEVDFTGLPDGHTEEDMIAENALPAKTKTAGLRKLKKEDIDQVFELFKRYQSRFELIQIFTKEEFEHNFIGEESLPLDKQVIFSYVVEQPDGKITDFFSFYSLPFTILNNTKYKDLGIGYLYYYATDADFQFKDRFDPKATKALKTRLCELIYDACILAKNANMDVFNALTSQDNTLFLDDLKFGPGDGFLNFYLFNYRAKPITGGLNPDNSNDIKRRSNVGVVML
Q: With B3 as the molecule, how does the kcat/Km [6] read?
A: Its kcat/Km is 1.27 ×10⁵ /M/s.

Q: What about the Km [7] of the same molecule?
A: Its Km is 21.4 µM.

Q: What about the kcat [7] of the same molecule?
A: The kcat was 2.71 s⁻¹.
